Publication PMC12584684, “A minimal SufB2C2 complex functions as a [4Fe-4S] cluster scaffold in methanogenic archaea” (Microbiology Spectrum, 2025)
Blank lines part the entries; values can stand above or below the compound they belong to.

Assays:
[1] = tested on: T1, MTH SufB2C2; test: malachite green Pi release ATPase assay; type: biochemical, Methanothermococcus thermolithotrophicus; conditions: 60°C, pH 7.5, 5 mM MgCl2, 0-2 mM ATP, holo-form, anoxic
T1 construct: gene sufC; N-terminal His6-SufC co-expressed with untagged SufB in E. coli Rosetta 2(DE3); SufB2C2 heterotetramer, ~156 kDa by SEC; with Fe-S cluster assembly protein SufB
Source text: malachite green Pi release ATPase assay on MTH SufB2C2 | kinetic parameters (Vmax, Km, kcat, and catalytic efficiency) for holo-forms of MTH SufC and SufB2C2

[2] = tested on: T2, MTH SufC; test: malachite green Pi release ATPase assay; type: biochemical, Methanothermococcus thermolithotrophicus; conditions: 60°C, pH 7.5, 5 mM MgCl2, 0-2 mM ATP, holo-form, anoxic
T2 construct: pET15b N-terminal His6-tag, E. coli Rosetta 2(DE3), anoxic Ni-NTA; monomer 30 kDa, dimer by SEC
Source text: malachite green Pi release ATPase assay on MTH SufC | kinetic parameters (Vmax, Km, kcat, and catalytic efficiency) for holo-forms of MTH SufC and SufB2C2

[3] = molecular target: T3, MMP SufB2C2 (Methanococcus maripaludis, UniProt Q6LY25); test: iron quantification, UV-visible and EPR spectroscopy, as purified; type: binding; conditions: anoxic purification from native host; EPR at 10 K after 5 mM dithionite
T3 construct: gene MMP1168; sufCB operon, N-terminal Strep-tag on SufC, expressed in M. maripaludis S0001 and purified anoxically; SufB2C2 heterotetramer; with Fe-S cluster assembly protein SufB
T3 sequence (Q6LY25 1-248): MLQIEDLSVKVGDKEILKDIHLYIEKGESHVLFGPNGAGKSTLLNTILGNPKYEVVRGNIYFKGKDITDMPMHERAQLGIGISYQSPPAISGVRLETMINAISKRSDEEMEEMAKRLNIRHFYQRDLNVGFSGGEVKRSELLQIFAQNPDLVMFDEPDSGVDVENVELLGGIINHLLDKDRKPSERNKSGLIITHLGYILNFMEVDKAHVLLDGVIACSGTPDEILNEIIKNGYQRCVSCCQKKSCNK
T3 sequence (Q6LY24 1-418 partner): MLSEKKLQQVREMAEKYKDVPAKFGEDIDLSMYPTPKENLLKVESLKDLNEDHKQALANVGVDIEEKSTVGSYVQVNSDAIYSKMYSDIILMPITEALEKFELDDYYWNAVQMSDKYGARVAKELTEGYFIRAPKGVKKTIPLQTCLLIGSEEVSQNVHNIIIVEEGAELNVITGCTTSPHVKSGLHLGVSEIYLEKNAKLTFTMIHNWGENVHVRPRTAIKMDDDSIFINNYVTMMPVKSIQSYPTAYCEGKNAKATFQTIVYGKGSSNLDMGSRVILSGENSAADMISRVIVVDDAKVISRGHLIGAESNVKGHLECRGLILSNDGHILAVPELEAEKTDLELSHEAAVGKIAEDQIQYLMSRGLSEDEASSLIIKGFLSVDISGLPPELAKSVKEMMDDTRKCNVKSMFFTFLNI

[4] = molecular target: His6-tagged Methanothermococcus thermolithotrophicus SufB (Methanothermococcus thermolithotrophicus); test: SEC; Superdex 200 10/300 GL, 50 mM sodium HEPES, 200 mM NaCl, 5 mM MgCl2, pH 7.5; samples pretreated with 10 mM EDTA and 10 mM DTH overnight; calibrated with standards of 29-700 kDa; fractions on SDS-PAGE
[5] = molecular target: His6-tagged Methanothermococcus thermolithotrophicus SufC (Methanothermococcus thermolithotrophicus); test: as above
[6] = molecular target: His6-tagged Methanothermococcus thermolithotrophicus SufC (Methanothermococcus thermolithotrophicus)
[7] = molecular target: His6-tagged Methanothermococcus thermolithotrophicus SufC (Methanothermococcus thermolithotrophicus); remark: listed apart in the source

Km [1]: 2600 ± 700 µM
Km [2]: 1900 ± 800 µM
Compound: Nc1ncnc2c1ncn2[C@@H]1O[C@H](COP(=O)(O)OP(=O)(O)OP(=O)(O)O)[C@@H](O)[C@H]1O [ATP]

Compound: [S]12[Fe]3[S]4[Fe]1[S]1[Fe]2[S]3[Fe]41 [[4Fe-4S] cluster]
Fe atoms per protomer [3]: 1.6 ± 0.3 Fe per protomer

stoichiometry N [4]: 2
Compound: His6-tagged Methanothermococcus thermolithotrophicus SufB (natural protein)

stoichiometry N [5]: 2
Compound: His6-tagged Methanothermococcus thermolithotrophicus SufC (natural protein)

ATPase activity (malachite green) of the MTH SufB2C2 complex against MTH SufC alone at 60°C [6]: 7 fold
activation of apo-AcnB (Fe-S cluster transfer, aconitase activity) by the MTH SufB2C2 complex against MTH SufC alone [7]: 2 fold
Compound: untagged Methanothermococcus thermolithotrophicus SufB (natural protein)
